{"source": "patent US20250134019A1", "about": "“TRIKETONE DIOXYGENASE VARIANTS FOR HERBICIDE TOLERANCE” (Monsanto Technology LLC, priority 2022, published 2025)", "key": {"[1]": {"assay": "Enzyme activity (Kcat/Km) for hydroxylation of mesotrione at room temperature", "format": "biochemical", "details": "Round 2 high-throughput screens", "method": "The enzyme activity was expressed as Kcat/Km, M-1 sec-1. […] The enzyme activity was measured at room temperature for the hydroxylation of mesotrione, and was defined as Kcat/Km, M-1 sec-1 (specificity constant). Of these variants, four were tested in soybean plants. […] TDO activity was measured by the second hydroxylation of mesotrione. For routine activity measurements of TDO and determining the kinetic properties of the second hydroxylation, the continuous change in […], which is specific to the second hydroxylation and subsequent non-enzymatic water removal (i.e. the conversion of hydroxy-mesotrione to oxy-mesotrione), was monitored. […] The reaction proceeded until the maximum […] was obtained (usually 20-120 minutes depending upon the concentration of mesotrione) and the linear portion of the curve was determined by visual inspection. […] The reaction mixtures were analyzed by HPLC and mass spectrophotometry. By product conversation followed by peak integration on HPLC, a linear plot was obtained and the extinction co-efficient delta between the substrate (mesotrione) and the second product (oxy-mesotrione) was obtained according to the equation […]=(εp-εs)*bΔp where […] is the change of absorbance at 330 nm and b is the light path."}, "[2]": {"system": "transgenic soybean plants", "assay": "Response of R0 soybean plants transformed with Round 2 TDO variants to mesotrione", "format": "in vivo", "details": "R0 transgenic soybean sprayed with mesotrione", "from_the_text": "The next set of experiments was focused on determining if the balance between improved enzyme stability could outweigh a reduction in activity observed at optimal temperatures in soybean plants. […] To test this hypothesis, the eight variants from Round 2 biochemical analysis described in the preceding paragraph were transformed into soybean through Agrobacterium-mediated transformation, along with three controls. One of the controls (TDO_9) was a variant from the high-throughput screens that had poor activity. Two other controls were the D08 variant and the Os.TDO. R0 transgenic soybean plants were sprayed with the mesotrione herbicide to screen for herbicide tolerance. […] These included the Os.TDO control, the D08 variant and one Round 2 variant. The plants were scored for percent injury as described in the previous examples."}}}
{"molecule": "TDO_9: Os.TDO variant, SEQ ID NO:44, F199L-K279R relative to D08; control with poor activity (protein, TDO variant sequence) MADESWRAPALVQELAAKGVEEPPSRYLLREQDRPDVKLVAAELPEPIPVVDLGRLDGAEEATKLRVALQNWGFFLLTNHGIEASLMDDVMNLSREFFNQPIERKQKFSNLIDGKHFQIEGYGTDRVVTQDQVLDWSDRLHLRVEPKEEQDLAFWPDHPESFRDVLHKYASGCKRIRDDIIQAMAKLLELDEDYFLDRLNEAPTFARFNYYPPCPRPDLVFGIRPHSDGGLLTILLVDKDVGGLQVQRDGKWSNVPATPHTLLINLGDTMEVMSNGIFRSPVHRVVTNAEKERISLAMLYSVNDEKDIEPAAGLLDENRPARYRKVSVEEFRAGIFGKFSRGERYIDSLRI", "values": [{"measurement": "activity in high-throughput screens", "setting": "[1]", "result": "poor activity"}, {"measurement": "R0 % Injury", "setting": "[2]", "result": 36, "unit": "%"}]}
